Consider 3 molecules from patent US20250145697A1 (WASHINGTON UNIVERSITY, published 2025).

Where a chain is given by its changes, count along the chain named.

Assay [1] addresses T1, ApoE4 amino acids 24-125, expressed on yeast (human, UniProt P02649 42-143).
T1 construct: with myc tag, on yeast cells; range counts on the mature protein; also called helix1 + 2 + 3
T1 chain: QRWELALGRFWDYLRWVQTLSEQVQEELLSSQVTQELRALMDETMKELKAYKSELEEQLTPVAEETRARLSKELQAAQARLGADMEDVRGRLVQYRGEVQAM
As to the kind of experiment: yeast display of myc-tagged ApoE4 fragment, antibody staining.

Assay [2] concerns the target T2, ApoE4 amino acids 1-132, expressed on yeast (human, UniProt P02649 19-150).
T2 construct: with myc tag, on yeast cells; range counts on the mature protein; also called up to helix 3; not shown: myc tag and yeast surface-display partner
T2 chain: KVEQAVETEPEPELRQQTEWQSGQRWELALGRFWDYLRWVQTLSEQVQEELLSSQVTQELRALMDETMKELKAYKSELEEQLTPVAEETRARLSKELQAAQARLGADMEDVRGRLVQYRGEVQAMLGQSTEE
The assay is described as above.

A further assay concerns the target T3, murine ApoE (mouse, UniProt P08226 19-311).
T3 sequence (looked up): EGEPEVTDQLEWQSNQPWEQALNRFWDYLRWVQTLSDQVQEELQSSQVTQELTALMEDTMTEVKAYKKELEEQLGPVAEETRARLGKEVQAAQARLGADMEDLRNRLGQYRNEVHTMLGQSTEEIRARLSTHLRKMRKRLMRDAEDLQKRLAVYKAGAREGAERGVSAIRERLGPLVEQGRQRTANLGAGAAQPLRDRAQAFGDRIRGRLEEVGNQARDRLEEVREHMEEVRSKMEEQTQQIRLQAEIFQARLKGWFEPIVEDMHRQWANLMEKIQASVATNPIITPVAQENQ
As to the kind of experiment: not described.

Assay [3] addresses T4, recombinant alipidated human ApoE4 (human, UniProt P02649 19-317).
T4 construct: mature; full length recombinant protein made in E. coli or bought; biotinylated for SPR; position 112 is counted on the mature protein, not on the precursor entry; also called recApoE; non-lipidated ApoE4
As to the kind of experiment: SPR, biotinylated recombinant apoE4 captured on a streptavidin chip; column Ka (1/Ms). On the procedure:
(§1) ELISA plates were coated with 0.5 μg/ml of recombinant apoE2 (square), apoE3 (open circle), or apoE4 (closed circle). Then different concentrations of (A) HJ151, (B) HJ153, (C) HJ154, or (D) HJ156 were loaded on the plates. Horse-radish peroxidase labeled goat anti-mouse secondary antibodies were used to detect binding. […] HJ151 is specific for ApoE4 and HJ156 binds only ApoE3 and ApoE4. FIG. 5E-H are graphs depicting surface plasmon resonance profiles for various antibodies. Anti-ApoE antibodies were serially diluted 3-fold (starting at 100 nM for HJ153 (E), and 1000 nM for HJ151 (F), and […] (G)) for detection of binding to biotinylated-recombinant apoE4 captured on a streptavidin chip. Samples were injected at a flow rate of 30 μl/minute. (H) Apparent KD values of HJ151, HJ153 and HJ156 were calculated based on the SPR experiment.
(§2) ELISA plates were coated with 0.5 μg/ml of recombinant apoE2, apoE3, or apoE4. Then different concentrations of HJ151 (FIG. 5A), HJ153 (FIG. 5B), HJ154 (FIG. 5C), or HJ156 (FIG. 5D) were loaded on the plates. Horse-radish peroxidase labeled goat anti-mouse secondary antibodies were used to detect binding. […] HJ151 is specific for ApoE4 and HJ156 binds only ApoE3 and ApoE4. Surface plasmon resonance profiles for various antibodies was also performed.
(In general: Surface plasmon resonance follows binding to a sensor surface in real time, without labels.)

In assay [4] the target is T4, recombinant alipidated human ApoE4. As to the kind of experiment: SPR, biotinylated recombinant apoE4 captured on a streptavidin chip; column Kd (1/s). The procedure:
as §1, §2

For assay [5] the target is unchanged. As to the kind of experiment: SPR, biotinylated recombinant apoE4 captured on a streptavidin chip; column Apparent KD (M). On the procedure:
as §1, §2

Assay [6] addresses T5, heat-induced aggregates of ApoE4 (human, UniProt P02649 19-317).
T5 construct: mature; aggregated state of the recombinant protein; also called ApoE4 incubated at 40 C for 24 hr; heat-treated ApoE4
As to the kind of experiment: ELISA: pellet of heat-aggregated ApoE4 coated at 0.5 ug/ml, antibody titrated, HRP goat anti-mouse IgG, OD650. The procedure: (§3) The aggregated ApoE was induced by incubating ApoE at 1 mg/ml concentration at 40° C. for 24 hours. The aggregates then were recovered in the pellet fraction following ultracentrifugation at 186,000 g for 1 hour. For ELISA, the untreated ApoE or heat-induced aggregates of ApoE were coated directly to ELISA plates at 0.5 μg/ml overnight at 4° C. After three washes with PBS, the wells were blocked with 1% BSA-PBS for 1 hour at room temperature with shaking at 500 rpm. The blocked wells were washed once with PBS and subsequently loaded with antibodies at serial concentrations (starting at 100 nM with 5-fold dilutions thereafter). Bound antibodies were detected with HRP-labeled goat anti-mouse IgG (Jackson Immunoresearch) and visualized with TMB substrate at OD₆₅₀ (reaction stopped with BioFX stop solution).
(An ELISA detects its analyte on a solid surface through an enzyme-linked reagent.)

Assay [7] has as its target T6, recombinant alipidated human ApoE3 (human, UniProt P02649 19-317).
T6 construct: mature; full length recombinant protein made in E. coli or bought
As to the kind of experiment: direct ELISA on coated recombinant alipidated ApoE (0.5 ug/ml). An outline of the steps: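 Plates coated overnight with full-length recombinant alipidated ApoE (0.5 μg/ml), from E. coli or a commercial source, were washed, blocked and incubated with anti-ApoE antibody. Binding was detected with goat anti-mouse IgG-HRP to generate dose-response curves.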

In assay [8] the target is T7, heat-induced aggregates of ApoE3 (human, UniProt P02649 19-317).
T7 construct: mature; aggregated state of the recombinant protein; also called heat treated ApoE3
As to the kind of experiment: ELISA: pellet of heat-aggregated ApoE3 coated at 0.5 ug/ml, antibody titrated, HRP goat anti-mouse IgG, OD650. On the procedure:
as §3

T4 sequence (P02649 19-317 C130R): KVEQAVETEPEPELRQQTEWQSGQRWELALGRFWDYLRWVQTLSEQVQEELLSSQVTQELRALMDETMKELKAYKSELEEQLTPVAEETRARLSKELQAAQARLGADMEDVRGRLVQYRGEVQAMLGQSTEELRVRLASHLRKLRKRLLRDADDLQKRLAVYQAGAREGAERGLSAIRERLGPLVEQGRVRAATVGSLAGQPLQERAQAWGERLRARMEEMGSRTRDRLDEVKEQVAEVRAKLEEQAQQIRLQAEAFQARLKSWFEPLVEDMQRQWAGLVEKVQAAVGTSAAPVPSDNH
T6 sequence (P02649 19-317): as the sequence (P02649 19-317 C130R) above, with R112C counted along it
T7 sequence (P02649 19-317): as the sequence (P02649 19-317 C130R) above, with R112C counted along it

B1: HJ151 (antibody, V domains shown)
VH: QVQLQQSGAELVRPGASVTLSCKASGYTFTDYEMHWVKQTPVHGLEWIGVIDPEKGGTAYNQKFKGKAILTADKSSSTAYMDLRSLTSEDSAVYYCLKDSWGQGTTLTVSS
VL: DVLMTQTPLSLPVSLGDQASISCRSSQTIVHSDGNTYLEWYLQKPGQSPKLLIYKVSNRFSGVPDRFSGSGSGTYFTLKISRVEAEDLGVYYCFQGSHVPCTFGGGTKLEIKR
notes: murine monoclonal antibody from hybridoma; also called HJ151B (biotinylated)
Usually kon stands for the second-order rate constant of association. One may read the koff as the rate constant with which the complex falls apart. As a reminder, the EC50 (read off the curve) is the concentration needed to bring the measured effect to its halfway point. A higher EC50 (read off the curve) goes with weaker potency. In the case of B1, the binding result in assay [1] is listed as “binds”; in [2] it was “binds”; in the assay with murine ApoE it was “no binding”. Also, the kon in [3] turned out to be 19700 M⁻¹ s⁻¹. For the same molecule, the koff in assay [4] is 0.00119 s⁻¹. Further, the Kd in assay [5] worked out at 60.2 nM. In addition, the “EC50 (read off the curve)” value in [6] is about 0.3 nM.

B2: HJ156 (antibody, V domains shown)
VH: QVQLQQSGPELVKPGASVKISCKASGYIFTDYYINWVKRRPGQGLEWIGWIFPGSGVSYYNEQFKGKATLTVDKPSNTAYIFLSRLTSEDSAVYFCARYYSSSPFAYWGQGTLVTVSA
VL: B1 VL with T28N, V30I, D33N, Y41F, K44R, K50E, Y75D, C101Y
notes: murine monoclonal antibody from hybridoma; also called HJ156B (biotinylated)
Usually EC50 stands for the midpoint of the concentration-response curve. For B2, the EC50 in assay [7] amounted to 1.69 nM. The binding result with murine ApoE is on record as “no binding”. In assay [3], the kon amounted to 26400 M⁻¹ s⁻¹. Moreover, the koff in [4] stood at 0.00523 s⁻¹. Also, the “EC50 (read off the curve)” value in assay [8] is about 0.09 nM; in assay [6], about 0.07 nM. For the same molecule, the Kd in assay [5] is 198 nM.

B3: HJ154 (antibody, V domains shown)
VH: QVQLQQPGTEFVMSGASVMLSCKASGYIFTNYWLHWVKQRPGHGLEWIGEIDPSDSYSICNDNFKGKSTLTVDKSSSTAYMQLSSLTSEDSAVYYCAGSLGRVGLAYWGQGTLVTVST
VL: QIVLTQSPAIMSASPGEKVTMSCSASSSVSNMYWYQQKPGSSPKSWIYRTSNLASGVPARFSGSGSGTSYSLTISNMEAEDAATYYCQHYQNYPLTFGAGTKLELKR
notes: murine monoclonal antibody from hybridoma; also called HJ154B (biotinylated)
As for B3, the binding result in [1] and in [2] was “binds” each time. Besides, the EC50 in [7] was 0.24 nM. Besides, the “EC50 (read off the curve)” value is 0.16 to 0.2 nM in assay [8] and about 0.3 nM in assay [6].
